Results reported in article PMC5748213.

Assays:
human VPS29 (human) = human VPS29 (human) (UniProt Q9UBQ0); assay: ITC
[1] = target: retromer (VPS26–VPS29–VPS35) (UniProt O75436); assay: ITC
[2] = target: retromer (VPS26–VPS29–VPS35) (UniProt O75436); assay: SEC-MALS

“RidL (Lpg2311/Ceg28), full length (from UniProt Q5ZT54 1-1167) (natural protein)” was tested, and the Kd (human VPS29 (human)) was 0.181 µM, the Kd [1] was 0.151 µM and the stoichiometry N (RidL per retromer (printed as 1:1)) [2] was 1. It also gave a stoichiometry N (RidL per retromer (printed as 2:2)) [2] of 1.

Substance “VARPc (VARP residues 396–746, the two cysteine-rich domains) (from UniProt Q96NW4 396-746) (domain or fragment)” has a Kd [1] of 3 µM.

RidL_(30–236) (domain or fragment) gave a Kd [1] of 0.164 µM.

Substance “retromer (VPS26–VPS29–VPS35) (from UniProt O75436;Q9UBQ0;Q96QK1) (complex)” has a stoichiometry N [2] of 2.

For “TBC1D5TBC (TBC GAP domain of human TBC1D5, residues 1–419) (from UniProt Q92609 1-419) (domain or fragment)”, the Kd [1] was 0.45 µM.
